# Test results from article PMC4481223.
# Values joined by “and” are separate entries in the source; they are usually repeats but may differ in a detail not shown here. Equal values may be shown once.
# Assays:
# [1] = biological target: fused Cp (genetically-fused dimer of the hepatitis B virus core protein assembly domain) (hepatitis B virus); assay: native MS; non-covalent ESI-MS of oligomer samples isolated by SEC, button-dialysed into 100 mM ammonium acetate pH 6.8 (fused Cp samples at pH 9.5)
# [2] = biological target: fused Cp (genetically-fused dimer of the hepatitis B virus core protein assembly domain) (hepatitis B virus); assay: SEC; pooled peaks 2-4 of the fused Cp disassembly re-run on a 26/60 Superdex-200 column calibrated with molecular weight standards, 1.0 ml/min; masses from the standard curve
substance,measurement,setting,value
fused Cp (genetically-fused dimer of the hepatitis B virus core protein assembly domain),stoichiometry N,[1],2 and 3
same,stoichiometry N,[2],2 copies and 3 copies and 5 copies
